Test results taken from article PMC4413047, “‘Dopamine-first’ mechanism enables the rational engineering of the norcoclaurine synthase aldehyde activity profile” (The Febs Journal, 2015).

Legend:
Test in all cases: purified protein
Type in all cases: biochemical, Thalictrum flavum
CC(C)=CCC[C@@H](C)CC=O = conditions: 2.5 mM dopamine (nonsaturating), 50 mM Hepes, 37 °C
CC(C)=CCC[C@H](C)CC=O = conditions: 2.5 mM dopamine (nonsaturating), 50 mM Hepes, 37 °C
O=CCc1ccc(O)cc1 = conditions: 2.5 mM dopamine (nonsaturating), 50 mM Hepes, 37 °C
NCCc1ccc(O)c(O)c1 = conditions: 2.5 mM 4-HPAA (nonsaturating), 50 mM Hepes, 37 °C
CCCCCC=O = conditions: 2.5 mM dopamine (nonsaturating), 50 mM Hepes, 37 °C

Substance | Km (CC(C)=CCC[C@@H](C)CC=O) [mM] | Vmax (CC(C)=CCC[C@@H](C)CC=O) [µmol/min/mg] | kcat (CC(C)=CCC[C@@H](C)CC=O) [s⁻¹] | kcat/Km (CC(C)=CCC[C@@H](C)CC=O) [M⁻¹ s⁻¹] | Km (CC(C)=CCC[C@H](C)CC=O) [mM] | Vmax (CC(C)=CCC[C@H](C)CC=O) [µmol/min/mg] | kcat (CC(C)=CCC[C@H](C)CC=O) [s⁻¹] | kcat/Km (CC(C)=CCC[C@H](C)CC=O) [M⁻¹ s⁻¹] | Km (O=CCc1ccc(O)cc1) [mM] | Vmax (O=CCc1ccc(O)cc1) [µmol/min/mg] | kcat (O=CCc1ccc(O)cc1) [s⁻¹] | kcat/Km (O=CCc1ccc(O)cc1) [M⁻¹ s⁻¹] | Km (NCCc1ccc(O)c(O)c1) [mM] | Vmax (NCCc1ccc(O)c(O)c1) [µmol/min/mg] | kcat (NCCc1ccc(O)c(O)c1) [s⁻¹] | kcat/Km (NCCc1ccc(O)c(O)c1) [M⁻¹ s⁻¹] | Km (CCCCCC=O) [mM] | Vmax (CCCCCC=O) [µmol/min/mg] | kcat (CCCCCC=O) [s⁻¹] | kcat/Km (CCCCCC=O) [M⁻¹ s⁻¹]
TfNCS (Δ29TfNCS) (Thalictrum flavum subsp. glaucum) | 0.53 ± 0.14 | 1.07 | 0.37 ± 0.03 | 710 ± 200 | 0.38 ± 0.10 | 1.32 | 0.46 ± 0.02 | 1200 ± 310 | 18.1 ± 1.4 | 53.6 | 18.7 ± 0.9 | 1030 ± 90 | 22.2 ± 1.5 | 69 | 24 ± 1 | 1090 ± 80 | 13.4 ± 1.8 | 12.3 | 4.3 ± 0.3 | 320 ± 50
TfNCS (Δ29TfNCS) (Thalictrum flavum subsp. glaucum; L76A) | 0.49 ± 0.11 | 1.58 | 0.55 ± 0.03 | 1130 ± 270 | 0.59 ± 0.09 | 2.7 | 0.93 ± 0.05 | 1570 ± 250 | 17.4 ± 1.0 | 40.9 | 14.3 ± 0.5 | 820 ± 50 | 16.8 ± 1.0 | 38.9 | 13.6 ± 0.5 | 810 ± 60 | 13.4 ± 0.8 | 9 | 3.2 ± 0.1 | 240 ± 20
TfNCS (Δ29TfNCS) (Thalictrum flavum subsp. glaucum; Y108F) |  |  |  |  |  |  |  |  |  |  |  |  | 13.3 ± 0.7 | 29.1 | 10.2 ± 0.3 | 760 ± 50 | 7.6 ± 0.9 | 7.14 | 2.5 ± 0.1 | 330 ± 40
